Experimental data reported in PMC6679193, “Unraveling the Impact of Cysteine-to-Serine Mutations on the Structural and Functional Properties of Cu(I)-Binding Proteins” (International Journal of Molecular Sciences, 2019).
Where a chain is given by its changes, count along the chain named. Numbers in names are those of the source.

B1: Atox1 metallochaperone, wild type (WT-Atox1) (natural protein, human)
chain: MPKHEFSVDMTCGGCAEAVSRVLNKLGGVKYDIDLPNKKVCIESEHSMDTLLATLKKTGKTVSYLGLE
notes: Human Atox1 copper metallochaperone
B2: MBD3-4_C268S_C271S_C370S_C373S mutant of ATP7B (SER-MBD3-4) (domain or fragment, human)
chain: SANQNFNNSETLGHQGSHVVTLQLRIDGMHSKSSVLNIEENIGQLLGVQSIQVSLENKTAQVKYDPSCTSPVALQRAIEALPPGNFKVSLPDGAEGSGTDHRSSSSHSPGSPPRNQVQGTCSTTLIAIAGMTSASSVHSIEGMISQLEGVQQISVSLAEGTATVLYNPSVISPEELRAAIEDMGFEASVVSESCSTNPLGNH
notes: The methods describe only the wild-type construct; also called MBD3-4(Ser); source: expressed and purified as WT-MBD3-4 (E. coli Origami 2, chitin beads, intein self-cleavage)
B3: CueR metalloregulator of E. coli, wild type (WT-CueR) (natural protein, UniProt P0A9G4 1-135, looked up)
chain: MNISDVAKITGLTSKAIRFYEEKGLVTPPMRSENGYRTYTQQHLNELTLLRQARQVGFNLEESGELVNLFNDPQRHSADVKRRTLEKVAEIERHIEELQSMRDQLLALANACPGDDSADCPIIENLSGCCHHRAG
notes: No cleavage is described; source: E. coli BL21, purified (Ni-NTA agarose)
B4: CueR_C112S_C120S (natural protein, E. coli, UniProt P0A9G4 1-135, looked up)
chain: B3 chain with C112S, C120S
notes: E. coli CueR, same construct as m4, with C112S and C120S; source: E. coli BL21, purified (Ni-NTA agarose)
B5: CueR_C112S (natural protein, E. coli, UniProt P0A9G4 1-135, looked up)
chain: B3 chain with C112S
notes: E. coli CueR, same construct as m4, with C112S; source: E. coli BL21, purified (Ni-NTA agarose)
B6: CueR_C120S (natural protein, E. coli, UniProt P0A9G4 1-135, looked up)
chain: B3 chain with C120S
notes: E. coli CueR, same construct as m4, with C120S; source: E. coli BL21, purified (Ni-NTA agarose)

What was measured:
[1] = target: T1, ATP7B metal binding domains 3-4, wild type (WT-MBD3-4) (human, UniProt P35670 238-439); experiment: cross-linking; 0.1% glutaraldehyde, RT, 30 min or overnight, phosphate buffer (25 mM Na2HPO4, 150 mM NaCl, pH 8), read by SDS-PAGE; MBD3-4 at 50 uM or increasing concentrations, Atox1 at 50 uM; with or without Cu(I) at different ratios; conditions: both partners purified
T1 construct: The printed PCR primers encode a start at RPLSSAN and an end at TNPLGNH followed by a stop codon; Residues of the vector may remain after intein cleavage; also called ATP7B MBD3-4; ATP7B-MBD34; source: E. coli Origami 2, purified (chitin beads, intein self-cleavage with DTT)
T1 sequence: B2 chain with S31C, S34C, S133C, S136C

[2] = target: B2; experiment: as above; conditions: both partners purified
[3] = target: the molecule itself; experiment: as above
[4] = target: the molecule itself; experiment: cross-linking; 0.6% glutaraldehyde, RT, 30 min, phosphate buffer (25 mM Na2HPO4, 150 mM NaCl, pH 8), CueR at 20 uM, with or without Cu(I) at a 1:3 ratio, read by SDS-PAGE

B1
binding result [1]: binds
binding result [2]: binds

B2
binding result [3]: binds

B3
stoichiometry N [4]: 2

B4
binding result [4]: binds

B5
binding result [4]: binds

B6
binding result [4]: binds
